The results in this text go back to PMC2699145 (The Journal of Cell Biology, 2009).

B3: MBP-tagged RIL (natural protein, human, UniProt P50479 1-330, looked up)
chain: MPHSVTLRGPSPWGFRLVGGRDFSAPLTISRVHAGSKAALAALCPGDLIQAINGESTELMTHLEAQNRIKGCHDHLTLSVSRPEGRSWPSAPDDSKAQAHRIHIDPEIQDGSPTTSRRPSGTGTGPEDGRPSLGSPYGQPPRFPVPHNGSSEATLPAQMSTLHVSPPPSADPARGLPRSRDCRVDLGSEVYRMLREPAEPVAAEPKQSGSFRYLQGMLEAGEGGDWPGPGGPRNLKPTASKLGAPLSGLQGLPECTRCGHGIVGTIVKARDKLYHPECFMCSDCGLNLKQRGYFFLDERLYCESHAKARVKPPEGYDVVAVYPNAKVELV

Common to all, as to experiment: pull-down
Experiment [1] addresses B3.
In experiment [2] the target is maltose-binding protein (MBP)-tagged Src protein (UniProt P12931 1-536).
Experiment [3] has as its target pY419 Src (MBP-Src phosphorylated at Y419) (UniProt P12931 1-536, phosphotyrosine at 419).
Experiment [4] concerns the target GST-tagged Src (UniProt P12931 1-536).

B1: GST fusion protein containing the kinase domain of Src (residues 249-536) (domain or fragment, UniProt P12931 249-536, looked up)
chain: PTSKPQTQGLAKDAWEIPRESLRLEVKLGQGCFGEVWMGTWNGTTRVAIKTLKPGTMSPEAFLQEAQVMKKLRHEKLVQLYAVVSEEPIYIVTEYMSKGSLLDFLKGETGKYLRLPQLVDMAAQIASGMAYVERMNYVHRDLRAANILVGENLVCKVADFGLARLIEDNEYTARQGAKFPIKWTAPEAALYGRFTIKSDVWSFGILLTELTTKGRVPYPGMVNREVLDQVERGYRMPCPPECPESLHDLMCQCWRKEPEERPTFEYLQAFLEDYFTSTEPQYQPGENL
With B1, the binding result in experiment [1] is on record as “binds”.

B2: GST-RIL (reversion-induced LIM) (natural protein, human, UniProt P50479 1-330, looked up)
chain: MPHSVTLRGPSPWGFRLVGGRDFSAPLTISRVHAGSKAALAALCPGDLIQAINGESTELMTHLEAQNRIKGCHDHLTLSVSRPEGRSWPSAPDDSKAQAHRIHIDPEIQDGSPTTSRRPSGTGTGPEDGRPSLGSPYGQPPRFPVPHNGSSEATLPAQMSTLHVSPPPSADPARGLPRSRDCRVDLGSEVYRMLREPAEPVAAEPKQSGSFRYLQGMLEAGEGGDWPGPGGPRNLKPTASKLGAPLSGLQGLPECTRCGHGIVGTIVKARDKLYHPECFMCSDCGLNLKQRGYFFLDERLYCESHAKARVKPPEGYDVVAVYPNAKVELV
Consider B2, for which the binding result in experiment [2] and in experiment [3] was “binds” throughout.
Take B3: the binding result in experiment [4] is recorded as “binds”.
